Measured values reported in publication PMC2063392, “Antigenic determinants of prostate-specific antigen (PSA) and development of assays specific for different forms of PSA” (British Journal of Cancer, 1997).

Target: T1, human alpha2-macroglobulin (a2M) (human, UniProt P01023 24-1474)
T1 construct: human alpha2-macroglobulin bought from Biodesign; source: bought: Biodesign, MD, USA
T1 sequence (looked up): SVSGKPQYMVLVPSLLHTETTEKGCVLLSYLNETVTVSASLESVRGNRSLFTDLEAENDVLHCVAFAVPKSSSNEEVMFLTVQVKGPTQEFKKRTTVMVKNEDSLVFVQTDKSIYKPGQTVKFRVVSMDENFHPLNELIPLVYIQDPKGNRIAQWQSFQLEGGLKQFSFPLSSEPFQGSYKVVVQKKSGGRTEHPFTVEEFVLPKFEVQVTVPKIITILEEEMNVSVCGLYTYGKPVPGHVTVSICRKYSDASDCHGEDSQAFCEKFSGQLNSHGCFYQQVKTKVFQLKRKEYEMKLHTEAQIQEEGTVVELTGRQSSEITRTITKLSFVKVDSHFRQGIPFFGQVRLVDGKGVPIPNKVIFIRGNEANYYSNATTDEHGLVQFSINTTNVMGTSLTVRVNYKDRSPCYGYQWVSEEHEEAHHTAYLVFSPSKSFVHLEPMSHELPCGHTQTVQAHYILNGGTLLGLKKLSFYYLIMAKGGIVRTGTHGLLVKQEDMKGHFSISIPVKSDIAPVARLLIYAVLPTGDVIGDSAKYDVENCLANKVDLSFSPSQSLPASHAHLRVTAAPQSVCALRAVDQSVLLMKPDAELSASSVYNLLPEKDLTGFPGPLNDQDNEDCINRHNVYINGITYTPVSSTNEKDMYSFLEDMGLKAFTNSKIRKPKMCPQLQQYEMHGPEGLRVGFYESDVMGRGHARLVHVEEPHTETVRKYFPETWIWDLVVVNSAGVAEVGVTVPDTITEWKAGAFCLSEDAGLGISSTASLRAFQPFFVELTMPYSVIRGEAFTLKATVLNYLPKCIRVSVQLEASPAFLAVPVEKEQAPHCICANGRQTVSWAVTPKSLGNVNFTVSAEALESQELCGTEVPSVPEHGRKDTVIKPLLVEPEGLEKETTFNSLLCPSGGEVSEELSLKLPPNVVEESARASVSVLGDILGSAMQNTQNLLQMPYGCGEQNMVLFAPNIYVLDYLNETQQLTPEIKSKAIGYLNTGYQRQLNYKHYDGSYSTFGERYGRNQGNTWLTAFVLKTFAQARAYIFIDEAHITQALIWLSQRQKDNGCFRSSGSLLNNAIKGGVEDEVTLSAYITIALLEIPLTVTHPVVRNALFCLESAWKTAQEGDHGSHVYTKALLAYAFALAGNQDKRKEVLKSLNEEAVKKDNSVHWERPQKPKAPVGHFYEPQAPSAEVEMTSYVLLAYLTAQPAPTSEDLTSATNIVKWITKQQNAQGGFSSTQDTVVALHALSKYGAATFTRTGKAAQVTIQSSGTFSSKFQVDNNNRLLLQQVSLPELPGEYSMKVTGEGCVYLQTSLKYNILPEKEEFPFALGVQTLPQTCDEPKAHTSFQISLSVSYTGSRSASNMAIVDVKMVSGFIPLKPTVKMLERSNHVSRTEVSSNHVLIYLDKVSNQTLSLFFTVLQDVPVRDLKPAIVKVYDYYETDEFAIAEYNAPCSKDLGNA
Assay: loss of PSA immunoreactivity after incubation; human a2M incubated with twofold molar excess of PSA for 4 h at 37 C, used without further purification; PSA concentration determined before and after incubation
Conditions: both partners purified

binding result: binds
B1: prostate-specific antigen (PSA) (enzyme)
chain: not shown
notes: human prostate-specific antigen (PSA), 32 to 33-kDa single-chain glycoprotein from seminal plasma; the preparation also holds 'nicked' (internally cleaved) forms; also called F-PSA; free PSA; source: purified from pooled seminal plasma from healthy volunteers (ion-exchange chromatography and gel chromatography); also used unpurified in seminal plasma
